Data on 1 molecule can be found in publication PMC8699515.

The target in the assay is T1, C-reactive protein (CRP) from human pleural fluid (human) (UniProt P02741).
T1 sequence: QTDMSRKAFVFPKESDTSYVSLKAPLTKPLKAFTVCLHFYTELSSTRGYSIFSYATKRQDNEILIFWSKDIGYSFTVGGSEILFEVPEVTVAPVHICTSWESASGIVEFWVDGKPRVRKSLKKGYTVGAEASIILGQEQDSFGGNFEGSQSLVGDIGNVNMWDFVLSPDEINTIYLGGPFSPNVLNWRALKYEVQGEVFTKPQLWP
Kind of assay: ELISA; phage screening ELISA: CRP 0.25 ug/well coated overnight at 4 C on MaxiSorp, saturated with 3% BSA-PBS; phages in culture supernatant (100 uL, not normalised) 2 h at room temperature; anti-M13 HRP, TMB, absorbance at 450 nm; ratio of the CRP signal to the BSA control, triplicates. Background: An ELISA detects its analyte on a solid surface through an enzyme-linked reagent.

B1: anti-CRP nanobody H7 displayed on phage (VHH)
VHH: EVQLQASGGGLVQAGGSLRLSCAASGRTFSSYATGWYRQAPGKERELVAAISSGGSTYYADSVKGRFTISRDNAKNTVYLQMNSLKAEDTAVYYCAGGRRVGVLIGNEYDYWGQGTLVTVSS
Take B1: the Screening ELISA (CRP/BSA Signal) was found to be 7.1.
